This is an account of results in the nanobody polyreactivity screen of Harvey et al. (2022).

This series can be described thus: yeast display, Sf9 membrane polyspecificity reagent, FACS + sequencing; frameworks hold sequencing errors. The gist of the method: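 Galactose induction of a Saccharomyces cerevisiae BJ5465 synthetic nanobody display library ran 36–48 hours. The cells were then stained for 1 hour at 4 °C with 10% biotinylated, detergent-solubilized Sf9 membrane reagent, pulled down on streptavidin microbeads and FACS-sorted into low and high (top ~1%) gates on expression and reagent-binding fluorescence. Labels for polyreactivity follow the gate of origin.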
Turning to “QVQLVESGGGLVQAGGSLRLSCAASGFTLAGYDMGWYRQAPGKERELVATISTYADSVKGRFTISRDNAKNTVYLQMNSLKPEDTAVYDCAKKYVWTHNYWGQGTQVTVSS”, the “polyreactivity (PSR sort gate)” value is given as “low polyreactivity”.

For “QVQLVESGGGLVQAGGSLRLSCAASGFTLARNTMGWYRQAPGKQRELVAAISGGGSTNYADSVKGRFTISRDNAKNTVYLLMYSLKPEHTAVYYCNADSNSDNNDYDYWGQGSQVTVSS”, the “polyreactivity (PSR sort gate)” value is given as “low polyreactivity”.

“QVQLVESGGGLVQAGGSLRLSCAASGFTLDNYAIGWYRPAPGKERELVAASSWSGGRTYYADSVKGRFTISRDNAKNTVYLQMNSLKPEDTAVYYCYASPYGRKYGILADGDYWGQGTQVTVSS”: the “polyreactivity (PSR sort gate)” value is given as “high polyreactivity”.

Turning to “QVQLVESGGGLVQAGGSLRLSCAASGFTLDYYAMGLYRQAPGKERELVAAITSGSITYYADSVKGRFTISRDNAKNTVYLQMNSLKPEDTAVYYCAAVGLVRYGYWGQGTQVTVSS”, the “polyreactivity (PSR sort gate)” value is recorded as “high polyreactivity”.

As for “QVQLVESGGGLVQAGGSLRLSCAASGFTLFDYAMGWYRQAPGKERELVAAITTSGGSTYYADSVKGRFTISRDNAKNTVYLQMNSLKPEDTAVYYCAVEYMLTYYYYVSYEYYYWGQGTQVTVSS”, the “polyreactivity (PSR sort gate)” value was “high polyreactivity”.

For “QVQLVESGGGLVQAGGSLRLSCAASGFTLFTYAMGWYRQAPGKERELVAAIRSGGSTYYADSVKGRFTISRDTAKNTVYLQMNSLKPEDTAVYYCNAVYRYASGKYYYWGQGTQVTVSS”, the “polyreactivity (PSR sort gate)” value is on record as “high polyreactivity”.

Turning to “QVQLVESGGGLVQAGGSLRLSCAASGFTLGFNAMGWYRQAPGKERELVATISSSGGSTHYADSVKGRFTISRDNAKNTVYLQMNSLKPEDTAVYYCARDDSDRIWLEQSGYWGQGTQVTVSS”, the “polyreactivity (PSR sort gate)” value is listed as “low polyreactivity”.

For “QVQLVESGGGLVQAGGSLRLSCAASGFTLGFYAMGWYIQAPGKERELVAAINWRGGSTYYADSVKGRFTISRDNAKNTVYLQMNSLKPEDTAVYYCNAGFNTGGYGYWGQGTQVTVSS”, the “polyreactivity (PSR sort gate)” value is “high polyreactivity”.

As to “QVQLVESGGGLVQAGGSLRLSCAASGFTLGHYAMGWYRQAPGKERELVAVITSGSSTNYADSVKGRFTISRDNAKNTVYLQMNSLKPDDTAVYYCAAEDPYFKWLYYYWGQGTQVTVSS”, the “polyreactivity (PSR sort gate)” value is given as “low polyreactivity”.

As to “QVQLVESGGGLVQAGGSLRLSCAASGFTLGSNVMGWYRQAPGKERELVAGISQSGGRTFYADSVKGRFTISRDNAKNTVYLQMNSLKPEDTAVYYCAARRYAVEGSKNYYWGQGTQVTVSS”, the “polyreactivity (PSR sort gate)” value is recorded as “low polyreactivity”.

As to “QVQLVESGGGLVQAGGSLRLSCAASGFTLGSNVMGWYRQAPGKERELVAGISQSGGRTFYADSVKGRFTISRDNAKNTVYLQMNSLKPEDTAVYYCNKGASPDDYDYWGQGTQVTVSS”, the “polyreactivity (PSR sort gate)” value is “low polyreactivity”.

For the sequence “QVQLVESGGGLVQAGGSLRLSCAASGFTLGYYTMGWYRQAPGKERELVAAIRSNGGSTYYADSVKGRFTISRDNAKNTVYLQMNSLKPEDTAVYYCAARRWRYVGTRYDYWGQGTQVTVSS”, the “polyreactivity (PSR sort gate)” value was “high polyreactivity”.

“QVQLVESGGGLVQAGGSLRLSCAASGFTLIHYAMGWYRQAPGKERELVAGITTSGGSTYYADSVKGRFTISRDNAKNTVYLQMNSLKPEDTAVYYCAASSNTRGDYWGQGTQVTVSS”: the “polyreactivity (PSR sort gate)” value is listed as “high polyreactivity”.

As to “QVQLVESGGGLVQAGGSLRLSCAASGFTLISYDMGWYRPSPGKERELVAGISSGDSTDYADSVKGRFTISRDNAKNTVYLQMNSLKPEDTAVYYCAATWYGYYSRYDFYYWGQGTQVTVSS”, the “polyreactivity (PSR sort gate)” value is on record as “low polyreactivity”.

As for “QVQLVESGGGLVQAGGSLRLSCAASGFTLKSYAMGWYRQAPGKERELVASISRRGGSTYYADSVKGRFTISRDNAKNTVYLQMNSLKPEDTAVYYCNADYVRFPGNAYDYWGQGTQVTVSS”, the “polyreactivity (PSR sort gate)” value is reported as “high polyreactivity”.

For “QVQLVESGGGLVQAGGSLRLSCAASGFTLKYYAMGWYRQAPGKERELVAAITSSGGSTYYADSVKGRFTISRDNAKNTVYLQMNSLKPEDTAVYYCNAVTVYKHGSWGQGTQVTVSS”, the “polyreactivity (PSR sort gate)” value is listed as “high polyreactivity”.

As for “QVQLVESGGGLVQAGGSLRLSCAASGFTLLKNAMRGYRQAPGKERELVAAIRVSGGSTYYADSVKGRFTISRDNAKNSVYLQMNSLKPEDTAVYYCAAKYLRWPVSTMYYWGQGTQVTVSS”, the “polyreactivity (PSR sort gate)” value is recorded as “high polyreactivity”.

Consider “QVQLVESGGGLVQAGGSLRLSCAASGFTLQQYTMGWYRQAPGKERELVAAISTSGVRTYYADSVKGRFTISRDNAKNTVYLQMNSLKPEDTAVYYCNAAWVYGIGWYSGYDYWGQGTQVTVSS”, for which the “polyreactivity (PSR sort gate)” value was “high polyreactivity”.

Take “QVQLVESGGGLVQAGGSLRLSCAASGFTLRLYVMGWYRQAPGKERELVAAITSSGGSTYYADSVKGRFTISRDIAKNTVYLQMNSLKPEDTAVYYCAAVNRKSQLYGYWGQGTQVTVSS”: the “polyreactivity (PSR sort gate)” value is reported as “high polyreactivity”.

As for “QVQLVESGGGLVQAGGSLRLSCAASGFTLRRYAMGWYRLAPGKERELVATITSGGTTDYADSVKGRFTISRDNAKNTVYLQMNSLKPEDTAVYYCAAYRRGAYYYWGQGTQVTVSS”, the “polyreactivity (PSR sort gate)” value is listed as “high polyreactivity”.

For “QVQLVESGGGLVQAGGSLRLSCAASGFTLSKYAKGWYRPAPGKERELVAAITGSGVRTYYADSVKGRFTISRDYAKNSVYLELNSLKPEDTAVYYCATGTKKGRYRDELDCWGHGTQVTVSS”, the “polyreactivity (PSR sort gate)” value is on record as “high polyreactivity”.

Turning to “QVQLVESGGGLVQAGGSLRLSCAASGFTLSNNAMGWYRQAPGKERELVAGLTSGGDSTNYADSVKGRFTISRDNAKNTVYLQMNSLKREDTAVYDCAAQGGTNTPGVVESDYWGQGTQVTVSS”, the “polyreactivity (PSR sort gate)” value is reported as “low polyreactivity”.

On to “QVQLVESGGGLVQAGGSLRLSCAASGFTLSRNAMGWYRQAPGKERELVAAISYSGARTYYADSVKGRFTISRDNAKNTVYLQMNRLKPEDTAVYYCAKVVPYPDYDYWGQGTQVTVSS”, for which the “polyreactivity (PSR sort gate)” value was “high polyreactivity”.

In the case of “QVQLVESGGGLVQAGGSLRLSCAASGFTLSYNVMGWYRQAPGKERELVAAISDSGGSTYYADSVKGRFTISRDNAKNTVYLQMNSLKPEDTAVYYCAAYYPTRYQYGTIWVAYNYWGQGTQVTVSS”, the “polyreactivity (PSR sort gate)” value is listed as “low polyreactivity”.

Consider “QVQLVESGGGLVQAGGSLRLSCAASGFTLTRKAMGWYRQAPGKERELVAAISRSGGSTYYADSVKGRFTISRDNAKNTVYLQMNSLKPEDTAVYYCNAGYGYGYPKYDYWGQGTQVTVSS”, for which the “polyreactivity (PSR sort gate)” value is recorded as “high polyreactivity”.

Consider “QVQLVESGGGLVQAGGSLRLSCAASGFTLVNNAMGWYRQAPGKERELVAAISKRAGRTYYADSVKGRFTISRDNAKNTVYLQMNSLKPEDTAVYYCNAGKRVEYDYWGQGTQVTVSS”, for which the “polyreactivity (PSR sort gate)” value was “high polyreactivity”.

As for “QVQLVESGGGLVQAGGSLRLSCAASGFTLWLNAMGWYRQAPGKERELVAAITTSDDGTYYADSVKGRFTISRDTAKNTVYLQMNSLKPEDTAVYYCAADYYSVLYDYWGQGTQVTVSS”, the “polyreactivity (PSR sort gate)” value was “low polyreactivity”.

With “QVQLVESGGGLVQAGGSLRLSCAASGFTLYVNAMGWYRHAPGKERELVAAISRGTTTYYADSVKGRFTISRDNAKNTVYLQMNSLKPEDTAVYYCAGETGHPYEEYDYWGQGTQVTVSS”, the “polyreactivity (PSR sort gate)” value was “high polyreactivity”.

With “QVQLVESGGGLVQAGGSLRLSCAASGFTLYYNAMGWYRQAPGKERELVAAINIGDSTNYADSVKGRFTISRDNAKNTVYLQMNSLKPEDTAVYYCAAVLLPYGVFYTVAINVDYWGQGTQVTVSS”, the “polyreactivity (PSR sort gate)” value was “low polyreactivity”.

With “QVQLVESGGGLVQAGGSLRLSCAASGFTLYYYAMGGYRQAPGKERELVAAISYSGGTTYYADSVKGRFTISRDNAKNTVYLLMYSLKPEDTAVYYCAAGFYSYSWYVKLAYGYWGQGIQVTVSS”, the “polyreactivity (PSR sort gate)” value is recorded as “low polyreactivity”.

As to “QVQLVESGGGLVQAGGSLRLSCAASGFTLYYYTMGWYRQAPGKERELVAAITSGGDTYYADSVKGRFTISRDNAKNTVYLQMNSLKPEDTAVYYCAAVDDDYSIVWYDYWGQGTQVTVSS”, the “polyreactivity (PSR sort gate)” value is reported as “low polyreactivity”.

Turning to “QVQLVESGGGLVQAGGSLRLSCAASGFTQEDYTMGWYRQAPGQERELVARITSGGSTNYADSVKGRFTISRDNGKNTDYLQMNSLKADETAVYYCNARYAWINMDYWGQGTQVTVSS”, the “polyreactivity (PSR sort gate)” value is recorded as “low polyreactivity”.

“QVQLVESGGGLVQAGGSLRLSCAASGFTSAPYAMGWNRQAPGKERELVAAISSGDTTSYADSVKGRFTISRDNEKNTVYFQMNSLKPEDTAVYYCAAVYFNVIESYKTAGYDYWGQGTQVTVSS”: the “polyreactivity (PSR sort gate)” value is “low polyreactivity”.

Take “QVQLVESGGGLVQAGGSLRLSCAASGFTSGNYAMGWYRQAPGKERELVAAIDSDGSTYYADSVKGRFTISRDNAKNTVYLQMKSLKPEDTAVYYCNKDIKSATDSYHYEDDYWGQGTQVTVSS”: the “polyreactivity (PSR sort gate)” value is given as “low polyreactivity”.

Take “QVQLVESGGGLVQAGGSLRLSCAASGFTSPIYAMGWYRQAPGKERELVAVIDWSSGITYYADSVKGRFTISRDNAKNTVYLQMNSLKPEDTAVYYCAAEYRGRGWRYGYDYWGQGTQVTVSS”: the “polyreactivity (PSR sort gate)” value was “high polyreactivity”.

With “QVQLVESGGGLVQAGGSLRLSCAASGFTSRNYAMGWYSQARGKARELVAVFSKSGTSTYYADSVKGRFTISRDHAKNTVYLQMTSLKPEDTAVYYCSADTGHLSNSMDYWGQGTQVTVSS”, the “polyreactivity (PSR sort gate)” value is “high polyreactivity”.

With “QVQLVESGGGLVQAGGSLRLSCAASGFTSWDNDMGWYRQAPGKERELVAAMSRGGSTNYADSVKGRFTISRDNAKNTVYLQMNSLKPEDTAVYYCAAGSYAGFAVIGYYYWGQGTQVTVSS”, the “polyreactivity (PSR sort gate)” value is given as “low polyreactivity”.

As for “QVQLVESGGGLVQAGGSLRLSCAASGFTTSQYAMGWYRQAPGKERDLVAAITSSGSSTYYADSVKGRFTISRDNAKNTVYLQMNSLKPEDTAVYYFNTDAYHRYPGSVWYYYWGQGTQVTVSS”, the “polyreactivity (PSR sort gate)” value was “high polyreactivity”.

As for “QVQLVESGGGLVQAGGSLRLSCAASGFTVGLYAMGWYRQAPGKERELVAAISGGGSTNYADSVKGRFTISRDNAKNTVYLQMNSLKPEDTAVYYCNKAYHNVYYNWYLRYYSYDYWGQGTQVTGSS”, the “polyreactivity (PSR sort gate)” value is given as “low polyreactivity”.

As for “QVQLVESGGGLVQAGGSLRLSCAASGFTVGSNAMGWYRQAPGKERELVAAISRSSGRTYYADSVKGRFTISRDNAKNTVDLQMNSLKPEDTAVYYCAAQTRYRISLQYYYWGQGTQVTVSS”, the “polyreactivity (PSR sort gate)” value was “high polyreactivity”.

Take “QVQLVESGGGLVQAGGSLRLSCAASGFTVGYAMGWYRQAPGKEREFVAAITRGGGTRTSYADSVKGRFTISRDNAKNTVYLQMNSLKPEDTAVSYCAARRWWSPRTQYDYWGQGTQVTVSS”: the “polyreactivity (PSR sort gate)” value is recorded as “high polyreactivity”.
